Assay results from the supplement of paper PMC12455559.
± gives the standard deviation of the averaged measurements.

Assays:
[1] = purified protein yield per well (BCA); higher = higher soluble expression
In short: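 On an OT-2 robot, lysed cells were processed by binding protein to Ni-charged magnetic beads and releasing it with SUMO protease. Expression took place in E. coli C41(DE3), in 2 mL autoinduction cultures with 100 µg/mL kanamycin, for 2 h at 37 °C followed by 40 h at 18 °C. The Pierce Rapid Gold BCA kit was used to quantify purified protein yield in each well, with values under 25 ug (0.1 mg/mL) below the detection threshold.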

[2] = PET hydrolysis, aromatic products released after 48 h (umol product/mg enzyme); higher = more PET depolymerization activity
In short: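 The measure of PET hydrolysis activity is aromatic product released into the supernatant, given per mg enzyme. Nickel-purified, SUMO-cleaved enzyme without tag was added at 5 μg (50 μL) to 3.5 mg amorphous PET film or crystalline PET powder in 450 μL of citrate, phosphate or glycine buffer spanning pH 4.5 to 8.5. After 48 h at 40 or 60 °C in sealed plates without shaking, absorbance at 260 and 280 nm was taken against buffer blanks.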

[3] = melting temperature (DSF); higher = more thermostable
Protocol: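 Candidate PET hydrolases were expressed in E. coli C41(DE3) in 2 mL autoinduction cultures in 24-deep-well plates, Ni-bead purified and released by SUMO protease cleavage on an OT-2 robot. Yield per well was measured by BCA; values below 25 ug (0.1 mg/mL) are below the detection threshold. Melting temperature was measured by differential scanning fluorimetry with Sypro Orange, ramping from 25 C at 0.3 C/step.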

[4] = substrate: cryPow, 40 °C, pH 4.5
[5] = substrate: cryPow, 40 °C, pH 5.5
[6] = substrate: cryPow, 40 °C, pH 6.5
[7] = substrate: cryPow, 40 °C, pH 7.5
[8] = substrate: cryPow, 60 °C, pH 4.5
[9] = substrate: cryPow, 60 °C, pH 5.5
[10] = substrate: cryPow, 60 °C, pH 6.5
[11] = substrate: cryPow, 60 °C, pH 7.5
[12] = substrate: aFilm, 40 °C, pH 4.5
[13] = substrate: aFilm, 40 °C, pH 5.5
[14] = substrate: aFilm, 40 °C, pH 6.5
[15] = substrate: aFilm, 40 °C, pH 7.5
[16] = substrate: aFilm, 60 °C, pH 4.5
[17] = substrate: aFilm, 60 °C, pH 5.5
[18] = substrate: aFilm, 60 °C, pH 6.5
[19] = substrate: aFilm, 60 °C, pH 7.5

Sequence	purified protein yield per well [1]	PET hydrolysis [2, 4]	PET hydrolysis [2, 5]	PET hydrolysis [2, 6]	PET hydrolysis [2, 7]	PET hydrolysis [2, 8]	PET hydrolysis [2, 9]	PET hydrolysis [2, 10]	PET hydrolysis [2, 11]	melting temperature [3]	PET hydrolysis [2, 12]	PET hydrolysis [2, 13]	PET hydrolysis [2, 14]	PET hydrolysis [2, 15]	PET hydrolysis [2, 16]	PET hydrolysis [2, 17]	PET hydrolysis [2, 18]	PET hydrolysis [2, 19]	PET hydrolysis ([2]; substrate: cryPow, 40 °C, pH 8.5)	PET hydrolysis ([2]; substrate: cryPow, 60 °C, pH 8.5)
ADNPYERGPAPTAASIAADRGPFATAQVTVPRGNGFGGGVIYYPTDTSQGTFGAIAIAPGFGTAWSYYAWQGPRLASFGFVVIGIETNTLNDYADARATQLLAALDYLVNSSPVRDRVDRNRLAVGGHSMGGGGAILAANQRPSLLTAVGQAPYVPDGSLATIKSPTIIFAGQADGTVTPQYAQNAYNTIPSSVERAYVEIANEGHGFPAGGGGGNSGAFARTMMIWMKLFIDKDTRYAPFLCPSLSNANGISKYMASCPLDPPGGGPTASPTASPTVSPTVSPSGTPPATSAIRGVGSGRCLDVNGASQANGAQAQIWDCNGQNNQKWTTTSAGELRVYGNKCLDVNGGGTADGTSVIIWDCNGQNNQKWRLNTDGTITAVGANKCLDVSGAGTANGTKVQIWTCNGQNNQKWTRT [ESM038]	190 µg	4	10	16	19	< 3	< 3	4	6	68.8 C	–	–	–	–	–	–	–	–	–	–
ADNPYERGPAPTEASVEAPRGPYAVSETTVSPLAVTGFGGGTVYYPTSTADGTFGAIAVSPGYTGTQSSIAWLGPRLASQGFVVFTIDTLTTLDQPDSRGRQLLAALDYLTQKSSVRGRIDSTRLGVMGHSMGGGGSLEAAKSRPSLQAAIPLTPWNLDKTWPEVATPTLIFGADGDTIAPVATHAEPFYTSLPASLDRAYLELNGATHFTPNTSNTTIAKYSIAWLKRFIDDDTRYEQFLCPLPRPGLTIEEYRGNCPHTS [TEP117]	202 µg	< 3	< 3	< 3	< 3	< 3	< 3	< 3	< 3	40 C	< 3	< 3	< 3	< 3	< 3	< 3	< 3	< 3	–	–
ADNPYERGPAPTTSSIEASRGPFATASTTVSSLVSGFGGGTIYYPTSTAEGTFGAVAISPGYTGTQSSIAWLGPRIASQGFVVITIDTNTIYDQPDSRASQLLAALDYLTQSSSVRTRIDATRLGVMGHSMGGGGTLRAAESRPALQAAIPLTAWHTDKTWGNVRVPTLVIGAENDSIAPVATHSEPFYTSLPSTLDKAYLELNAADHFAPNSSNTTIAKYSISWLKRFIDNDTRYEQFLCPPPSRSLLIEEYRDTCPHS [TEP108]	53.3 µg	< 3	< 3	< 3	< 3	–	–	–	–	42.1 C	–	–	–	–	–	–	–	–	–	–
ADNPYERGPDPTERSIEAARGPFGVSTERVGSLGVSDFGGATIYHPTDRSQTYGAIAISPGFTAGWTSLSWLGERLASQGFVVIGIDTITRLDQPGSRGRQLLAALDYATTRSNARALIDAQRLAVAGHSMGGGGTLEAAAERPSLKAAIPLAPWNLDKSWAEVRTPTLIIGGESDNIAAVNTHSIPFYNSLSNAREKAYMEIDNGTHFFPNTANTLMAKYMISWMKRYIDDDTRYEQFLCPPPDDRGISEYRHTCPGS [DP088]	70 µg	–	< 3	< 3	< 3	–	< 3	< 3	< 3	43.9 C	–	–	–	–	–	–	–	–	< 3	< 3
ADNPYERGPDPTESSIEASRGPFAVSQTTVSSLAVTGFGGGTIYYPTDTSQGTFGAVAISPGYTADQSSIAWIGPRLASQGFVVFTIDTITRYDQPASRGDQLLAALDYLTQRSSVRGRIDSSRLGVAGHSMGGGGTLEAAEERPSLQAAVPLAPWNLQKNFSGVRVPTFIIGGESDTVAPVATHSEPFYTSLPSTLDKAYMELNNASHFFPNTPNTTMAKYMISWFKRFIDDDTRYDQFLCPNPSGLAIEEYRSTCPY [TEP089]	105 µg	< 3	< 3	< 3	< 3	< 3	< 3	< 3	< 3	44.2 C	–	–	–	–	–	–	–	–	–	–
ADNPYERGPDPTPASVAAPNGPFATAQVSVPPGYGFNGGMIYYPTDTSQGTFGAIAISPGYTALFSVELAWMGPRLASQGFVVIGIETNDRNDFDTARGTQLLAALDYLTGQSSVRSRVDPNRLAVAGHSMGGGGAFSAALRRPALKAAVGFTPFSPSQNLTNMQVPALLYSGQNDTVTTPSSVSNLYNGLPSTTEGAYLEAAGLDHSFPTRPNTLLMRTMIPWVKIFLDNDLRYTQFLCPLMDSSGVLQYRNTCPLVPPGLPSPSPTTAPPTTAPPTTAPPTTAPPTTAPPTTAPPTTAPPAGACTATYQTIGSWPGGFQGEVTVRAGNSAINGWTVGWSLGSGQSITQIWNGTLSTSGSSVSVRNVSYNGSLPAAGTVTFGFLGSGSPSTPSTVTCTSP [ESM012]	519 µg	< 3	9.5 ± 3.5	21.5 ± 3.5	21.5 ± 0.71	< 3	< 3	< 3	< 3	60.7 C	< 3	< 3	< 3	< 3	< 3	< 3	< 3	< 3	–	–
